# Measured values: patent publication US20240075114A1
# Biological target: PF-4 in cynomolgus monkey plasma (cynomolgus monkey)
# Assay: aligned sandwich ELISA, cyno plasma
substance,measurement,value
monoclonal anti-HPF4 antibody (Abcam cat. no.: ab49735),AUC Ratio vs anti-HPF4,1
same,anti-HPF4 AUC mean,2.9
